{
  "source": "paper PMC5969510",
  "about": "“Molecular mechanics of coiled coils loaded in the shear geometry” (Chemical Science, 2018)",
  "origin": "cited, not measured here",
  "conditions": "unzip geometry",
  "description": "To overcome these limitations and to investigate the sequence–structure–mechanics relationship of coiled coils in more systematic detail, site-specific coupling strategies were used in more recent experiments so that the mechanical coordinate was precisely defined. Using coiled coil homodimers, the force was applied to both helices at the same terminus so that the coiled coils were mechanically loaded in the so-called ‘unzip’ geometry.[11],[17],[37],[38]",
  "data": [
    {"substance": "vimentin: intermediate filament protein with coiled coil (literature)", "values": [
      {"measurement": "unzipping (unfolding) force", "value": "8–15 pN"}
    ]}
  ]
}
